Data as given in PMC7993993.

Target: T1, His6-PomZ (M. xanthus) (UniProt Q1DEM0)
T1 sequence: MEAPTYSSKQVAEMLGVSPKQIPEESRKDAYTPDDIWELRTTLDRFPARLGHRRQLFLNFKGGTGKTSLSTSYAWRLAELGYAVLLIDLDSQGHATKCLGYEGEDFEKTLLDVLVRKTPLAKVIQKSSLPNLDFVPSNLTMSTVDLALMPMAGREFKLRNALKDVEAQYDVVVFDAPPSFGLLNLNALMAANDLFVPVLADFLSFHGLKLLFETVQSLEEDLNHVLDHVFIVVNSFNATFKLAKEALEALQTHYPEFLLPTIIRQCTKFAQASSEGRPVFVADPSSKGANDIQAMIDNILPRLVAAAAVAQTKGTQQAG

His6-PomZ ATPase activity (NADH-coupled assay, 1 mM ATP, 32°C) with DNA, PomX^NPEP peptide up to 15 µM, 4 µM His6-PomZ: 27 ATP hr^−1
Binder: MKKAFEQNVSRAKPRLRLGALT [PomX^NPEP peptide]
